Columns and labels:
Type in all cases: biochemical
[1] = Characterisation of purified recombinant PytH2 carboxylesterase on p-nitrophenyl esters
Description: Protein is a carboxylesterase from Sphingobium wenxiniae produced by PytH2 recombinant, expressed in E. coli BL21 (DE3) IUBMB: 3.1.1.88 CAS: 9016-18-6. The Chemical Composition of the carboxylesterase has Chemical purity: >90% buffer of 10 mM phosphate (pH 7.4), 2.7 mM KCI, 137 mM NaCI. Post translational procedures produced in a protease deficient E. coli strain and optimized for synthesis. The protein Appearance: clear, colorless solution:
Unit definition: One unit is defined as the amount of enzyme required to generate 1 μmol/min of 4-p-nitrophenol from 4-nitrophenyl-L-acetate at 30° C. and pH 7.4. Specific activity: 15±3 μ/mg
The enzyme is also deactivated by surfactant compounds such as SDS.
An esterase gene (PytH2) of Sphingobium wenxiniae containing an open reading frame (ORF) of 873 bp. The ORF of PytH2 was expressed in Escherichia coli, under the control of the promoter T7. […] E. coli BL21(DE3)/pET28 containing PytH2 expressed a novel 31.4-kDa protein corresponding to PytH2 in an N-terminal fusion with the His-tag peptide. The recombinant Sphingobium wenxiniae PytH2 protein was purified to electrophoretic homogeneity in a one-step affinity chromatography procedure on Ni-NTA Resin. The optimum pH and temperature of the purified enzyme were 7.0 and 37 degrees C., respectively. […] It was also active on pNP-butyrate(C(4) and pNPcaproate(C(6)).

[2] = Fenpropathrin degradation, HPLC; settings: 20 ppm fenpropathrin; 15 minutes at 37 C with shaking
Description: 1000 ppm fenpropathrin was diluted to 5 point curve which was able to detect on HPLC the gradient of 20% water and 80% using the instrument method described above for permethrin. 20 ppm of […] was placed in […] with 10 μL […] and reacted for 15 minutes at 37 C with shaking. HPLC was run on the sample after being diluted 1:1 MeOH using instrument method described above for permethrin. A 90% degradation of fenpropathrin was detected with PytH2.

[3] = Serum analysis: cat serum plus permethrin +/- E3, HPLC; settings: for % permethrin control: relative to no enzyme
Description: The next step was to test the enzymatic hydrolysis of permethrin in feline blood (cat serum). Cat serum was acquired, permethrin was added to the serum and was assayed as a control by HPLC. After the cat serum control was analyzed three different concentrations of the enzyme were introduced to the cat serum control and then analyzed by HPLC.
Cat serum was acquired, permethrin was added to the serum and was assayed as a control by HPLC. After the cat serum control was analyzed three different concentrations of the enzyme were introduced to the cat serum control and then analyzed by HPLC.

[4] = Deltamethrin degradation, HPLC; settings: method as for permethrin; FIG. 5
Text: Using the method and instruments described above for permethrin, 40% of deltamethrin was degraded by pPytH2, PytH2 esterase as shown in FIG. 5.

[5] = Order of pyrethroid hydrolysis efficiency of PytH2; settings: pyrethroid substrates
Text: Activity of the enzyme: In order of hydrolysis efficiency: transpermethrin>cis-permethrin>fenpropathrin>trans-cypermethrin>cis-cypermethrin>cyhalothrin>fenvalerate>deltamethrin>bifenthrin.

[6] = pNPA method esterase (carboxylesterase) activity assay of spore productions; settings: 30° C. for 30 minutes, absorbance at 400
Description: Each of the identified enzymes were evaluated for esterase activity assay using pNBA method described below. Determination of carboxylesterase activity of cargo enzyme in Bacillus thuringiensis spore productions or of free enzyme productions. Three active carboxylesterases cloned into pBCm (Bt EO) and pET28a (E. coli BL21) systems: pnbA (B. subtilis), PytH2 (Sphingobium wenxiniae strain), and MsE1 (Methylobacterium sp). p-Nitrophenyl acetate was the substrate in assays for esterase activity. The hydrolysis of p-nitrophenyl acetate releases p-nitrophenol and acetate, and while p-nitrophenyl acetate is colorless, p-nitrophenol is yellow.
6 mg p-Nitrophenyl acetate (pNPA, CAS #830-03-5, MW: 181.1 g/mol) was weighed and dissolved in 1 mL methanol (CAS #67-56-1, MW: 32.04 g/mol). Stored at −20° C. and kept on ice when preparing reactions.
8.0 g sodium chloride (NaCl, CAS #7647-14-5, MW: 58.44 g/mol), 1.44 g sodium phosphate dibasic was dissolved (Na2HPO4, CAS #7558-79-4, MW: 141.96 g/mol), and 0.24 g potassium phosphate monobasic (KH2PO4, CAS #7778-77-0, 136.09 g/mol) in 800 mL DI H20, then adjust pH to 7.4 using hydrochloric acid (HCl, CAS #7647-01-0, MW: 36.46 g/mol). Make 100 mL aliquots and autoclave.
Esterase from rabbit liver (CAS #9016-18-6, Sigma E0887-powder). Store at −20° C. To prepare a stock dissolve 1 mg in 1 mL PBS, kept on ice when using.
Up to 1 mL spore production was pelleted up for 5 min at max speed. Supernatant was discarded without disturbing spore pellet and suspend pellet in ice-cold PBS. Spores kept suspended on ice until use.
The assay was run at 30° C. for 30 minutes. The assay was shaken continuously. Activity was read on (A) 400 BioTek Synergy/HTX microplate reader was used. The results of pNPA hydrolysis are shown in Table 3 depicting carboxylesterase enzyme activity for each of the five strains using pNPA hydrolysis.

B1: E3: carboxylesterase PytH2 (pytH) from Sphingobium wenxiniae, amino acid SEQ. ID No. 3, DNA SEQ. ID No. 6; recombinant, His-tagged (protein, listed as Sphingobium wenxiniae)
chain: MTVTDIILIHGALNRGACYDAVVPLLEARGYRVHAPDLTGHTPGDGGHLSVVDMEHYTRPVADILARAEGQSILLGHSLGGASISWLAQHHYDKVAGLIYLTAVLTAPGITPETFVLPGEPNRGTPHALDLIQPVDEGRGLQADFSRLERLREVFMGDYPGEGMPPAEQFIQTQSTVPFGTPNPMEGRALEIPRLYEALDDVVIPIAVQRQMQKEFPGPVAVVSLPASHAPYYSMPERLAEAIADFADAPAEYRQTATKAGPDRPAGADGGRADRADLP
modifications: His tag
notes: ID No. 6; recombinant, His-tagged
- cofactor requirement for activity [1]: does not require a cofactor
- stability of the enzyme [1]: quite stable
- activity after heat incubation ([1]; after incubation at 70° C.): inactive
- effect of metal ions on the enzyme ([1]; metal ions, can recover activity): strongly inhibited
- Specific activity ([1]; one unit = 1 μmol/min 4-p-nitrophenol from 4-nitrophenyl-L-acetate at 30° C. and pH 7.4): 15±3 μ/mg
- substrate preference among pNP (p-nitrophenyl) esters: pNP-acetate (C(2)) ([1]; pNP-acetate): best substrate
- activity on pNP-butyrate ([1]; pNP-butyrate(C(4))): active
- activity on pNPcaproate ([1]; pNPcaproate(C(6))): active
- optimum pH ([1]; purified enzyme): 7.0
- optimum temperature ([1]; purified enzyme): 37 degrees C.
- effect of surfactant compounds on the enzyme ([1]; surfactant compounds such as SDS): deactivated
- degradation of fenpropathrin [2]: 90%
- Cis-permethrin (HPLC area) ([3]; 2.5 μL E3, 15 min 37 degree C.): 1624.5
- Total permethrin (area) ([3]; 2.5 μL E3, 15 min 37 degree C.): 1624.5 area
- Total permethrin (expected 2 ppm) ([3]; 2.5 μL E3, 15 min 37 degree C.): 0.098 ppm
- Trans-permethrin (HPLC area) ([3]; 2.5 μL E3, 15 min 37 degree C.): 0
- % permethrin control ([3]; 2.5 μL E3, 15 min 37 degree C.): 7.0%
- Cis-permethrin (HPLC area) ([3]; 10 μL E3, 15 min 37 degree C.): 0
- Total permethrin (area) ([3]; 10 μL E3, 15 min 37 degree C.): 0 area
- Total permethrin (expected 2 ppm) ([3]; 10 μL E3, 15 min 37 degree C.): 0.000 ppm
- Trans-permethrin (HPLC area) ([3]; 10 μL E3, 15 min 37 degree C.): 0
- % permethrin control ([3]; 10 μL E3, 15 min 37 degree C.): 0.0%
- % permethrin control ([3]; 10 μL E3, 15 min 37 degree C., listed as PytH2): 0.0%
- Cis-permethrin (HPLC area) ([3]; 30 μL E3, 15 min 37 degree C.): 0
- Total permethrin (area) ([3]; 30 μL E3, 15 min 37 degree C.): 0 area
- Total permethrin (expected 2 ppm) ([3]; 30 μL E3, 15 min 37 degree C.): 0.000 ppm
- Trans-permethrin (HPLC area) ([3]; 30 μL E3, 15 min 37 degree C.): 0
- % permethrin control ([3]; 30 μL E3, 15 min 37 degree C.): 0.0%
- deltamethrin degraded [4]: 40%
- order of hydrolysis efficiency [5]: transpermethrin>cis-permethrin>fenpropathrin>trans-cypermethrin>cis-cypermethrin>cyhalothrin>fenvalerate>deltamethrin>bifenthrin
- pNPA hydrolysis [6]: 26.3 ± 0.9 nmol pNPA/min/1E+8 spores
